Measured values: patent US20210085770A1 (KORANEX CAPITAL, published 2021)

Target: T1, recombinant SARS-CoV-2 S1 protein expressed from insect (Sf9) cells (S1-His, SinoBiological, Cat. No. … (SARS-CoV-2, UniProt P0DTC2 16-685, glycosylated by insect cells))
T1 construct: also called 51-His (as misprinted)
Assay: ELISA, coated insect-cell S1-His, HRP-conjugated lectin 10 ug/mL

Row | Binder | mean fold increase of OD450 [fold]
1 | Maackia amurensis lectin (MAA) (other) SDELSFTINNFVPNEADLLFQGEASVSSTGVLQLTRVENGQPQKYSVGRALYAAPVRIWDNTTGSVASFSTSFTFVVKAPNPDITSDGLAFYLAPPDSQIPSGSVSKYLGLFNNSNSDSSNQIVAVELDTYFAHSYDPWDPNYRHIGIDVNGIESIKTVQWDWINGGVAFATITYLAPNKTLIASLVYPSNQTTFSVAASVDLKEILPEWVRVGFSAATGYPTEVETHDVLSWSFTSTLEANCDAATEN | 4.3
2 | Vicia villosa lectin (VVA) (other) SESTSFSFTNFNPNQENLILQEDALVNSKGTLELTKNGKPVPESLGRNCTTLASFTTSFSFVMSAPNSLDVADGLAFFLAPPDTQPQKRGGFLGLFKDRKHDISYQSVAVEFDTYSNVWDPNTTHIGIDTNTIESKKITPFDMVYGEKILFASLVFPVSQDILPEYVRVGFSATTGLNEGVVETH | 22.5
